Source: patent EP4431526A1 (Emfret Analytics GmbH & Co. KG, dated 2024)

Tests used:
[1] = molecular target: human GPVI, membrane expressed on platelets (human) (UniProt Q9HCN6); assay: flow cytometry ex vivo, hGP6^tg/tg platelets, anti-human IgG-Fab-FITC, 1 h after 4 mg/kg i.v.
[2] = molecular target: T1, human GPVI-Fc fusion protein (human, UniProt Q9HCN6 21-267, limits assumed); assay: ratio of KD values (0.46 nM against 0.195 nM)
T1 construct: also called human GPVI protein antigen
T1 sequence (looked up): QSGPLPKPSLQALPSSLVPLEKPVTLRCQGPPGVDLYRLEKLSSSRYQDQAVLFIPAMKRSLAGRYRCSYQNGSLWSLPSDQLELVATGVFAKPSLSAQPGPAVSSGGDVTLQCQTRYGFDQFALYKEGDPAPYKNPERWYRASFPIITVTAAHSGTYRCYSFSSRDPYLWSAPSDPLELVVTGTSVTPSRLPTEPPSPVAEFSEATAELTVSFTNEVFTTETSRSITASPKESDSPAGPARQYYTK

[3] = molecular target: human GPVI, membrane expressed on platelets (human) (UniProt Q9HCN6); assay: flow cytometry, hGP6^tg/tg platelets, anti-human IgG-Fab detection, EMA601 at 0.1 ug/mL
[4] = molecular target: T1, human GPVI-Fc fusion protein; assay: BLI (Octet), GPVI-Fc on biosensor, 1:1 fit
[5] = molecular target: human GPVI, membrane expressed on platelets (human) (UniProt Q9HCN6); assay: cell-based or functional assay
[6] = molecular target: human GPVI, membrane expressed on platelets (human) (UniProt Q9HCN6); assay: flow cytometry, hGP6^tg/tg platelets, anti-human IgG-Fab detection, EMA601 at 0.2 ug/mL

B1: HC1 LC2 humanized Fab (EMA601) (Fab, V domains shown)
VH: QVQLQESGPGLVKPSETLSLTCTASGFSLTSYGVTWIRQPPGKGLEWIGVIWGDGSTNYHSGLRSRVTISVDTSKSQFSLKLSSVTAADTAVYYCAKPIYYDFDDDAMDYWGQGTLVTVSS
VL: DIQMTQSPSSLSASVGDRVTITCKASQNVGTYVAWFQQRPGKAPKSLIYSASYRCSGVPSKFSGSGSGTDFTLTINSLQPEDFATYYCHQYNNYPLTFGQGTKVEIKR
notes: also called EMF601; VH1:VL2
Q: Which results are given for B1?
A: fold amount of bound Fab against ACT017 [1]: 1.8 fold; fold increase of affinity against Emf6.1^Fab [2]: ~2.3 fold; % of the epitopes occupied compared to the highest tested concentration (50 µg/mL) [3]: 57.3%; Kd [4]: 0.195 nM; koff [4]: 0.000123 s⁻¹; kon [4]: 628000 M⁻¹ s⁻¹; collagen-induced aggregation of washed human platelets [5]: 50 % reduction; potency to inhibit GPVI function in human and hGP6^tg/tg platelets in vitro, against ACT017 [5]: 10 fold; % of the epitopes occupied compared to the highest tested concentration (50 µg/mL) [6]: 86.2%
